Results as given in patent US20150274826A1 (ARCH ONCOLOGY, published 2015).

Legend:
mouse CD47 = biological target: T1, mouse CD47 (mouse, UniProt Q61735 19-303); assay: cell-based ELISA on mouse 4T1 cells, apparent Kd
T1 construct: whole, on cells; also called CD47 on mouse RBCs; CD47 on 4T1 cells
T1 sequence (looked up): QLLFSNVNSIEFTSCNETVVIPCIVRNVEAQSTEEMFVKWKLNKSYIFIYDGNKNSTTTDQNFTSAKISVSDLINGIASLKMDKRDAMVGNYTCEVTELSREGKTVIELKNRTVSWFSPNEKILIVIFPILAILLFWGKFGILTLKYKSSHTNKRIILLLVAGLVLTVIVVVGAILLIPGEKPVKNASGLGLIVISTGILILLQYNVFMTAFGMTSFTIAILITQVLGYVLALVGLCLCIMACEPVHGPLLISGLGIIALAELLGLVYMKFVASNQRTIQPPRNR
Experimental: (§1) OV10 cells are grown in IMDM medium containing 10% heat inactivated fetal bovine serum (BioWest; S01520) and 4T1 cells are grown in RMPI medium containing 10% heat inactivated fetal bovine serum (BioWest; S01520). One day before assay, 3×10⁴ cells are plated in 96 well cell bind plates (Corning #3300, VWR #66025-626) so that they are 95-100% confluent at the time of assay. Cells are washed and various concentrations of purified antibodies added in either IMDM or RPMI at 37° C. for 1 hour in […]. Cells are then washed with media and incubated for an additional hour at 37° C. with HRP labeled secondary anti-human antibody (Promega) diluted 1/2500 in media. Cells are washed three times with PBS, and the peroxidase substrate 3,3′,5,5′-tetramethylbenzidine is added (Sigma; Catalog #T4444). Reactions are terminated by the addition of HCl to 0.7N, and absorbance at 450 nm is determined using a Tecan model Infinite M200 plate reader. The apparent binding affinities of these clones to human and mouse cells is determined by non-linear fits (Prism GraphPad software). […] Agglutination of human RBCs is assessed following incubation of human RBCs with various concentrations of humanized blocking only clones. Blood is diluted (1:50) and washed 3 times with PBS/EDTA/BSA. RBCs are added to U-bottomed 96 well plates with equal volumes of the antibodies (75 μl) and incubated for 3 hrs at 37° C. and overnight at 4° C.

human CD47 = biological target: T2, human CD47 (human, UniProt Q08722 19-323); assay: cell-based ELISA on human OV10 cells, apparent Kd
T2 construct: whole, on cells; also called CD47 on human RBCs; CD47 on OV10 cells
Experimental: as §1

T2 sequence (Q08722 19-323): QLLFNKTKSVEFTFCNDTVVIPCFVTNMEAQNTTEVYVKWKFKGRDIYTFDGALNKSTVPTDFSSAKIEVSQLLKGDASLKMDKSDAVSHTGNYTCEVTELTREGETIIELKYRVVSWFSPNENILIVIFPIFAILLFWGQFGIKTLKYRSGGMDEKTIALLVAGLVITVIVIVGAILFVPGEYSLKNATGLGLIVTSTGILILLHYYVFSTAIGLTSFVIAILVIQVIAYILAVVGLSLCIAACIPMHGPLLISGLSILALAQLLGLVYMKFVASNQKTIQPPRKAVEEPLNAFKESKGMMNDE

| Binder | Kd (mouse CD47) [nM] | Kd (human CD47) [nM] |
| --- | --- | --- |
| Clone 14.1 (hum14 IgG1 N297Q) (antibody, IgG1 N297Q) heavy: QVQLQESGPGLVKPSQTLSLTCTVSGYTFTNYYVFWVRQARGQRLEWIGDINPVNGDTNFNEKFKNRVTISADKSISTAYLQWSSLKASDTAMYYCARGGYTMDYWGQGTLVTVSSASTKGPSVFPLAPSSKSTSGGTAALGCLVKDYFPEPVTVSWNSGALTSGVHTFPAVLQSSGLYSLSSVVTVPSSSLGTQTYICNVNHKPSNTKVDKKVEPKSCDKTHTCPPCPAPELLGGPSVFLFPPKPKDTLMISRTPEVTCVVVDVSHEDPEVKFNWYVDGVEVHNAKTKPREEQYQSTYRVVSVLTVLHQDWLNGKEYKCKVSNKALPAPIEKTISKAKGQPREPQVYTLPPSR light: DVVMTQSPLSLPVTLGQPASISCRSSQSLVHSNGNTYLHWYQQKPGKAPKLLIYKVSYRFSGVPDRFSGSGSGTDFTLKISRVEAEDVGVYYCSQNTHVPRTFGQGTKVEIKRTVAAPSVFIFPPSDEQLKSGTASVVCLLNNFYPREAKVQWKVDNALQSGNSQESVTEQDSKDSTYSLSSTLTLSKADYEKHKVYACEVTHQGLSSPVTKSFNRGEC | 0.0949 | 0.0962 |
| Clone 8.1 (hum08 IgG1 N297Q) (antibody, IgG1 N297Q) heavy: QITLKESGPTLVKPTQTLTLTCTFSGYTFTNYYVFWIRQSPSRGLEWLGDINPVNGDTNFNEKFKNRFTISRDNAKNSLYLQMNSLRAEDTAVYYCARGGYTMDYWGQGTLVTVSSASTKGPSVFPLAPSSKSTSGGTAALGCLVKDYFPEPVTVSWNSGALTSGVHTFPAVLQSSGLYSLSSVVTVPSSSLGTQTYICNVNHKPSNTKVDKKVEPKSCDKTHTCPPCPAPELLGGPSVFLFPPKPKDTLMISRTPEVTCVVVDVSHEDPEVKFNWYVDGVEVHNAKTKPREEQYQSTYRVVSVLTVLHQDWLNGKEYKCKVSNKALPAPIEKTISKAKGQPREPQVYTLPPSR light: DIVMTQTPLSLPVTPGEPASISCRSSQSLVHSNGNTYLHWYQQKPGKAPKLLIYKVSYRFSGVPDRFSGSGSGTDFTLKISRVEAEDVGVYYCSQNTHVPRTFGQGTKVEIKRTVAAPSVFIFPPSDEQLKSGTASVVCLLNNFYPREAKVQWKVDNALQSGNSQESVTEQDSKDSTYSLSSTLTLSKADYEKHKVYACEVTHQGLSSPVTKSFNRGEC | 0.205 | 0.115 |
| Clone 5.1 (hum05 IgG1 N297Q) (antibody, IgG1 N297Q) heavy: QVQLQESGPGLVKPSQTLSLTCTVSGYTFTNYYVFWVRQAPGKGLEWVSDINPVNGDTNFNEKFKNRVTISVDTSKNQFSLKLSSVTAADTAVYYCARGGYTMDYWGQGTLVTVSSASTKGPSVFPLAPSSKSTSGGTAALGCLVKDYFPEPVTVSWNSGALTSGVHTFPAVLQSSGLYSLSSVVTVPSSSLGTQTYICNVNHKPSNTKVDKKVEPKSCDKTHTCPPCPAPELLGGPSVFLFPPKPKDTLMISRTPEVTCVVVDVSHEDPEVKFNWYVDGVEVHNAKTKPREEQYQSTYRVVSVLTVLHQDWLNGKEYKCKVSNKALPAPIEKTISKAKGQPREPQVYTLPPSR light: DIVMTQTPLSLPVTPGEPASISCRSSQSLVHSNGNTYLHWYLQKPGQSPQLLIYKVSYRFSGVPDRFSGSGSGTDFTLKISRVEAEDVGVYYCSQNTHVPRTFGQGTKVEIKRTVAAPSVFIFPPSDEQLKSGTASVVCLLNNFYPREAKVQWKVDNALQSGNSQESVTEQDSKDSTYSLSSTLTLSKADYEKHKVYACEVTHQGLSSPVTKSFNRGEC | 0.112 | 0.125 |
| Clone 5.2 (hum05 IgG4 S228P L235E) (antibody, IgG4 S228P L235E) heavy: not shown light: DIVMTQTPLSLPVTPGEPASISCRSSQSLVHSNGNTYLHWYLQKPGQSPQLLIYKVSYRFSGVPDRFSGSGSGTDFTLKISRVEAEDVGVYYCSQNTHVPRTFGQGTKVEIKRTVAAPSVFIFPPSDEQLKSGTASVVCLLNNFYPREAKVQWKVDNALQSGNSQESVTEQDSKDSTYSLSSTLTLSKADYEKHKVYACEVTHQGLSSPVTKSFNRGEC | 0.172 | 0.107 |
| Clone 13.2 (hum 13 IgG4 S228P L235E) (antibody, IgG4 S228P L235E version of Clone 13) heavy: not shown light: DIVMTQTPLSLPVTPGEPASISCRSSQSLVHSNGNTYLHWYQQKPGKAPKLLIYKVSYRFSGVPDRFSGSGSGTDFTLKISRVEAEDVGVYYCSQNTHVPRTFGQGTKVEIKRTVAAPSVFIFPPSDEQLKSGTASVVCLLNNFYPREAKVQWKVDNALQSGNSQESVTEQDSKDSTYSLSSTLTLSKADYEKHKVYACEVTHQGLSSPVTKSFNRGEC | 0.178 | 0.108 |
| Clone 1.2 (hum01 IgG4 S228P L235E) (antibody, IgG4 S228P L235E version of Clone 1; also called pVxK7b-037-hum01-HC-IgG4 S228P L235E-Pro) heavy: not shown light: DIVMTQTPLSLPVTPGEPASISCRSSQSLVHSNGNTYLHWYQQKPGKAPKLLIYKVSYRFSGVPDRFSGSGSGTDFTLKISRVEAEDVGVYYCSQNTHVPRTFGQGTKVEIKRTVAAPSVFIFPPSDEQLKSGTASVVCLLNNFYPREAKVQWKVDNALQSGNSQESVTEQDSKDSTYSLSSTLTLSKADYEKHKVYACEVTHQGLSSPVTKSFNRGEC | 0.175 | 0.15 |
| Clone 8.2 (hum08 IgG4 S228P L235E) (antibody, IgG4 S228P L235E) heavy: not shown light: DIVMTQTPLSLPVTPGEPASISCRSSQSLVHSNGNTYLHWYQQKPGKAPKLLIYKVSYRFSGVPDRFSGSGSGTDFTLKISRVEAEDVGVYYCSQNTHVPRTFGQGTKVEIKRTVAAPSVFIFPPSDEQLKSGTASVVCLLNNFYPREAKVQWKVDNALQSGNSQESVTEQDSKDSTYSLSSTLTLSKADYEKHKVYACEVTHQGLSSPVTKSFNRGEC | 0.0949 | 0.121 |
| Clone 3.2 (hum03 IgG4 S228P L235E) (antibody, IgG4 S228P L235E) heavy: not shown light: DVVMTQSPLSLPVTLGQPASISCRSSQSLVHSNGNTYLHWYQQKPGKAPKLLIYKVSYRFSGVPDRFSGSGSGTDFTLKISRVEAEDVGVYYCSQNTHVPRTFGQGTKVEIKRTVAAPSVFIFPPSDEQLKSGTASVVCLLNNFYPREAKVQWKVDNALQSGNSQESVTEQDSKDSTYSLSSTLTLSKADYEKHKVYACEVTHQGLSSPVTKSFNRGEC | 0.202 | 0.129 |
| Clone 14.2 (hum14 IgG4 S228P L235E) (antibody, IgG4 S228P L235E) heavy: not shown light: DVVMTQSPLSLPVTLGQPASISCRSSQSLVHSNGNTYLHWYQQKPGKAPKLLIYKVSYRFSGVPDRFSGSGSGTDFTLKISRVEAEDVGVYYCSQNTHVPRTFGQGTKVEIKRTVAAPSVFIFPPSDEQLKSGTASVVCLLNNFYPREAKVQWKVDNALQSGNSQESVTEQDSKDSTYSLSSTLTLSKADYEKHKVYACEVTHQGLSSPVTKSFNRGEC | 0.102 | 0.0899 |
| Clone 3.1 (hum03 IgG1 N297Q) (antibody, IgG1 N297Q) heavy: EVQLVQSGAEVKKPGESLRISCKGSGYTFTNYYVFWVRQARGQRLEWIGDINPVNGDTNFNEKFKNRVTITADKSTSTAYMELSSLRSEDTAVYYCARGGYTMDYWGQGTLVTVSSASTKGPSVFPLAPSSKSTSGGTAALGCLVKDYFPEPVTVSWNSGALTSGVHTFPAVLQSSGLYSLSSVVTVPSSSLGTQTYICNVNHKPSNTKVDKKVEPKSCDKTHTCPPCPAPELLGGPSVFLFPPKPKDTLMISRTPEVTCVVVDVSHEDPEVKFNWYVDGVEVHNAKTKPREEQYQSTYRVVSVLTVLHQDWLNGKEYKCKVSNKALPAPIEKTISKAKGQPREPQVYTLPPSR light: DVVMTQSPLSLPVTLGQPASISCRSSQSLVHSNGNTYLHWYQQKPGKAPKLLIYKVSYRFSGVPDRFSGSGSGTDFTLKISRVEAEDVGVYYCSQNTHVPRTFGQGTKVEIKRTVAAPSVFIFPPSDEQLKSGTASVVCLLNNFYPREAKVQWKVDNALQSGNSQESVTEQDSKDSTYSLSSTLTLSKADYEKHKVYACEVTHQGLSSPVTKSFNRGEC | 0.132 | 0.115 |
